Tests used:
[1] = target: T1, FERM of EPB41L5 (N-terminal FERM domain construct, Flag-tagged) (human, UniProt Q9HCM4 43-327); experiment: Western blot of transfected 293T cells
T1 construct: the real construct is only its N-terminal FERM domain; not shown: Flag tag from vector pSG5-KF2M1-Flag

[2] = target: T2, Δ619-624 of EPB41L5 (Flag-tagged deletion construct) (human, UniProt Q9HCM4 1-733); experiment: immunofluorescent staining of MKN28 cells co-transfected with EPB41L5 siRNA and construct
T2 construct: also called A619-624; not shown: Flag tag from vector pSG5-KF2M1-Flag
Description: At this time, the immunofluorescent staining was performed using anti-EPB41L5 mAb and anti-Flag antibodies. Green represents EPB41L5, red represents Flag tag, blue represents Hochest, and scale bars represent 20 μm.
Considering the characteristics of nonpermeabilized immunofluorescent staining, in order to inhibit expression of endogenous EPB41L5, cells were co-transfected with EPB41L5 siRNA and any one plasmid selected from among FL (full length) of EPB41L5, FERM of EPB41L5, C-terminus of EPB41L5 and Δ619-624 of EPB41L5. Then, expression of exogenous EPB41L5 was analyzed using anti-Flag antibody. EPB41L5 expression was detected in […] transfected with FL and C-terminal constructs and in MKN28 cells […] with A619-624 (FIG. 6H).

T2 sequence (Q9HCM4 other isoform, or with tags, fused parts or gaps mutant): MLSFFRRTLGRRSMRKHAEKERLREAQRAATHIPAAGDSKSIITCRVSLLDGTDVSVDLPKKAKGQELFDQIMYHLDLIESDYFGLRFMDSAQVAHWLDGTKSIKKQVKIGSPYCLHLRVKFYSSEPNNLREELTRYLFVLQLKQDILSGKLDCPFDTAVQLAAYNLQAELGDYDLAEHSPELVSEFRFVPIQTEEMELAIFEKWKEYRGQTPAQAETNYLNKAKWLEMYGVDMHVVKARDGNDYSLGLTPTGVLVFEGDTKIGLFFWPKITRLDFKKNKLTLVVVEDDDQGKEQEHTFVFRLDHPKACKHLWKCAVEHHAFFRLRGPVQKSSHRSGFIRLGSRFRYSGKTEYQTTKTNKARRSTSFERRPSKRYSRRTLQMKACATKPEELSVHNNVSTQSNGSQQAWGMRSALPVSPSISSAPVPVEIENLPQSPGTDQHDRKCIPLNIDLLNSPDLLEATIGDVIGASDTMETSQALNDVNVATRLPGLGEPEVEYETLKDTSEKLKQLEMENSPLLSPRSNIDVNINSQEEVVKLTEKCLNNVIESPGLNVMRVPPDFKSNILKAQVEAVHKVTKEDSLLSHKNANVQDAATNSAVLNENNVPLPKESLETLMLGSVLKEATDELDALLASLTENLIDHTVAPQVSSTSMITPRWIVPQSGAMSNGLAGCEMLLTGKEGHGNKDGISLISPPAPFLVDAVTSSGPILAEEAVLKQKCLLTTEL
T1 sequence (Q9HCM4 43-327): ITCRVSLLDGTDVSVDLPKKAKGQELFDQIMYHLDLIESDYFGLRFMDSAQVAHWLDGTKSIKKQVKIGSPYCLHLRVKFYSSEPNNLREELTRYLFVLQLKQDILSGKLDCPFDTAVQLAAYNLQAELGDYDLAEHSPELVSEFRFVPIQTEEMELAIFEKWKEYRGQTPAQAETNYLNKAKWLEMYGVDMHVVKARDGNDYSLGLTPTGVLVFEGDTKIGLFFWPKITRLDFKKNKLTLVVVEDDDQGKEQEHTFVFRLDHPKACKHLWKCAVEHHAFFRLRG

binding result [1]: no binding
binding result [2]: no binding
B1: anti-EPB41L5 monoclonal antibody (antibody, V domains shown)
VH: QVQLKESGTVLARPGASVKMSCKASGYTFTSYWMHWVKQRPGQGLEWIGAIYPGNSDTSYNQKFKDKAKLTAVTSTSTAYMELSSLTDEASAVYYCTRGGKLPFAMDYWGQGTSVTVSS
VL: DVLMTQTPLSLPVSLGDQASMSCRSSQSLVHSNGNTYLHWYLQKPGQSPKLLIYKVSNRFSGVPDRFSGSGSGTDFTLKISRVEAEDLGVYFCSQSTHVPWTFGGGTKLEIK
notes: also called anti-EPB41L5 mAb; EPB41L5 mAb
